The series has as its target T1, mRAG1F (mouse, UniProt P15919 389-456).
T1 sequence: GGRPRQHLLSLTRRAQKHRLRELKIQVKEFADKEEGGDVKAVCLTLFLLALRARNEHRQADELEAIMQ
Description: DNA-binding assay (type not stated); EMSA: 25 mM MOPS pH 7.0, 50 mM KCl, 2 mM DTT, 1.5 mM CaCl2, 2.5% glycerol, 50 nM HMGB1, 100 nM ss nonspecific oligo, ~50 nM each RAG, 25 C 20 min; pull-down: 50 mM Tris pH 7.5, 150 mM NaCl, 0.5% NP40, 5% glycerol, 1.5 mM CaCl2, 4 C. Particulars: protein: recombinant; chain copies: 2; label: 5' biotin on strand 1; blunt. On the technique in general: Mobility shift assays separate free from complexed probe on a gel.

B1: 12RSS (dsDNA)
DNA 1: GATCTGGCCTGTCTTACACAGTGATACAGACCTTAACAAAAACCCTGCAG
DNA 2: CTGCAGGGTTTTTGTTAAGGTCTGTATCACTGTGTAAGACAGGCCAGATC
On to B1, for which the binding result was “binds”.

Source of the values: paper PMC8289069, “Functional requirement of terminal inverted repeats for efficient ProtoRAG activity reveals the early evolution of V(D)J recombination”.
